Data: patent US20220362394A1, “ANTI-BCMA ANTIBODY CONJUGATES” (SUTRO BIOPHARMA, INC., priority 2019, published 2022)
Where a chain is given by its changes, count along the chain named.

T1: human BCMA-Fc (Homo sapiens, UniProt Q02223)
T1 construct: purchased R&D Systems
T1 sequence (Q02223 1-54 limits assumed): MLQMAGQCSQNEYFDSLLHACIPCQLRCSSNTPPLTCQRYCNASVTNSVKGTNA

B1: 10F4: chicken antibody, VH SEQ ID NO 203, VL SEQ ID NO 225 (antibody, V domains shown)
VH: AVTLDESGGGLQTPGGALSLVCKASGFTFSGYNMGWVRQAPGKGLEYVAGITYGTGSYTAYGAAVKGRATISRDNGQSTLRLQLNNLRAEDTATYYCARGGGLNSYGCSGANIDAWGHGTEVIVSS
VL: ALTQPSSVSANLGGTVKITCSGGGNYFGSYYYGWYQQKAPGSAPVTVIYNNNNRPSDIPSRFSGSTSGSTSTLTISGVRAEDEAVYFCGGFDSSTDAIFGAGTTLTVL
modifications: Synthetic 10F4, VH; Synthetic 10F4, VL
B2: 10H1: chicken antibody, VH SEQ ID NO 211, VL SEQ ID NO 233 (antibody, V domains shown)
VH: AVTLDESGGGLQTPGGALSLVCKASGFTFSGYGMGWMRQAPGKGLEYVARINSAGSDTDYGAAVKGRATISRDNGQSTVRLQLNNLRAEDTATYFCTRGGGGASIDGWGHGTEVIVSS
VL: B1 VL with L12P, G14E, F27Y, D57N, T66K, S71G, S76T, R79Q, T95S
modifications: Synthetic 10H1, VH; Synthetic 10H1, VL
B3: 9H1: chicken antibody, VH SEQ ID NO 210, VL SEQ ID NO 232 (antibody, V domains shown)
VH: AVTLDESGGGLQTPGGALSLVCKGSGFTFSDYGMGWMRQAPGKGLQYVARINSAGSDTNYGSAVKGRATISRDDGQSTVRLQLSSLRAEDTGIYYCTRGGGGASIDGWGHGTEVIVSS
VL: B1 VL with L12P, G14E, N25S, F27Y, A39S, V47L, S71G, S76T, F87Y, G90S
modifications: Synthetic 9H1, VH; Synthetic 9H1, VL
B4: 9A5: chicken antibody, VH SEQ ID NO 208, VL SEQ ID NO 230 (antibody, V domains shown)
VH: AVTLDESGGGLQTPGGAVSLVCKASGFSISDYGMGWMRQAPGKGLQYVARIDHDGRYTDYGAVVKGRATISRDNGQSTVRLQLNNLRAEDTGTYYCTRGGGAASIDTWGHGTEVIVSS
VL: B1 VL with L12P, G14E, F27V, S29G, P44L, V47L, D57N, S76T, G90S
modifications: Synthetic 9A5, VH; Synthetic 9A5, VL
B5: 10E10: chicken antibody, VH SEQ ID NO 212, VL SEQ ID NO 234 (antibody, V domains shown)
VH: AVTLDESGGGLQTPGGGLSLVCKASGFTFSSYGMGWMRQAPGKGLEFVARINSGGSSYTDYGSAVKGRATISRDDGQSTVRLQLNNLRAEDTGIYYCTRGGGGASIDGWGHGTEVIVSS
VL: B1 VL with L12P, G14E, F27A, A39S, V45L, N51S, T66L, S71G, S76T
modifications: Synthetic 10E10, VH; Synthetic 10E10, VL
B6: 9E12: chicken antibody, VH SEQ ID NO 209, VL SEQ ID NO 231 (antibody, V domains shown)
VH: B2 VH with A17G, G31D, M34L, D57G, D59Y, A62S, K65D, A92G, F95Y
VL: B1 VL with L12P, G14E, N25S, F27Y, A39S, V47L, S71G, S76T, F87Y, G90S
modifications: Synthetic 9E12, VH; Synthetic 9E12, VL
B7: 11D6: chicken antibody, VH SEQ ID NO 198, VL SEQ ID NO 220 (antibody, V domains shown)
VH: AVTLDESGGGLQTPGGTLSLVCKASGFTFSSFNMFWVRQAPGEGLEWVAYIRNDGRSTSYGPAVKGRATISRDNGQSTVRLQLNNLRAEDTGTYFCAKTTCVGSGGCIDTWGHGTEVIVSS
VL: ALTQPSSVSANPGETVEITCSGGNSDYGWFQQKSPGSAPVTVIYRNNQRPSDIPSRFSGSGSGSTNTLTITGVQAEDEAIYYCGNVDFTDDVFGAGTTLTVL
modifications: Synthetic 11D6, VH; Synthetic 11D6, VL
B8: 10G5: chicken antibody, VH SEQ ID NO 197, VL SEQ ID NO 219 (antibody, V domains shown)
VH: B7 VH with T17V, E43K, R52S, R56S, G92A, V102I
VL: B7 VL with E17K, S25Y, F30Y, V42L, R45Y, Q48K, G61K, N66G, G84A, F88S
modifications: Synthetic 10G5, VH; Synthetic 10G5, VL
B9: 9A8: chicken antibody, VH SEQ ID NO 196, VL SEQ ID NO 218 (antibody, V domains shown)
VH: B7 VH with E43K, R56N, T58A, G92A, F95Y, V102I
VL: B7 VL with E17K, N24S, R45S, D52G, G61K, N66G, G84A, F88Y
modifications: Synthetic 9A8, VH; Synthetic 9A8, VL

test system: U266B1; experiment: Cell killing with drug-conjugated 2° antibody (internalization), U266B1; format: cell-based, human; conditions: Conjugate P 2° antibody 20 nM, 72 hrs
Procedure: (§1) The internalization of the antibodies was evaluated by drugs conjugated to secondary antibodies in a cell killing assay on BCMA positive cells. BCMA-positive cell lines ARP-1 and U266B1 were used to screen for internalizing leads. Cells were washed twice with calcium and magnesium-free Dulbecco's phosphate-buffered saline (DPBS), harvested with Accutase® (Innovative Cell Technologies; San Diego, Calif.) and counted by the Vi-CELL Cell Viability Analyzers (Beckman Coulter, Brea, Calif.). A total of 12,500 cells in a volume of 25 microliter were seeded in a 384-well flat bottom white polystyrene plate (Greiner Bio-One, Monroe, N.C.) on the day of assay. Lead antibodies were formulated at 4× starting concentration in the cell culture medium and filtered through MultiScreenHTS 96-Well Filter Plates (Millipore; Billerica, Mass.). 12.5 μL of the serial diluted antibody (1:3 serial dilution starting from 100 nM) was added into treatment wells and 12.5 μL of an anti-human nanobody conjugated to according to Conjugate P (hemiasterlin via a cleavable linker) or according to Conjugate M (maytansinoid via a non-cleavable linker) was then added into each well at a fixed final concentration of 20 nM. […] Data was fitted with non-linear regression analysis, using a log(inhibitor) vs. response-variable slope, 4 parameter fit with GraphPad Prism (GraphPad v 5.0, Software; San Diego, Calif.). Data was expressed as relative cell viability (ATP content) % vs. dose of antibody.

Molecule	EC50	Span (%)
B1	0.36 nM	81%
B2	0.29 nM	89%
B3	1.1 nM	50%
B4	0.29 nM	84%
B5	2.5 nM	20%
B6	1.4 nM	47%
B7	1.1 nM	67%
B8	1.9 nM	63%
B9	2.3 nM	42%

test system: ARP-1; experiment: Cell killing with drug-conjugated 2° antibody (internalization), ARP-1; format: cell-based, human; conditions: Conjugate P 2° antibody 20 nM, 72 hrs
Procedure: as §1

Molecule	Span (%)
B1	87%
B2	88%
B3	74%
B4	93%
B5	46%
B6	80%
B7	83%
B8	82%
B9	82%

same assay, conditions: Conjugate P 2° antibody (hemiasterlin, cleavable linker) 20 nM, 72 hrs

Molecule	EC50
B1	1 nM
B2	0.86 nM
B3	1.3 nM
B4	0.7 nM
B5	3 nM
B6	1.2 nM
B7	3.8 nM
B8	3.5 nM
B9	2.4 nM

target: T1, human BCMA-Fc; experiment: Biacore kinetics, human BCMA-Fc; format: binding; conditions: 25° C., 1-1 Langmuir model
Procedure: Anti-Fab or anti-Fc polyclonal antibodies were immobilized onto a CM5 chip (GE Life Sciences) using amine coupling chemistry (from Amine Coupling Kit, GE Life Sciences). The immobilization steps were carried out at a flow rate of 25 μL/min in 1×HBS-EP+ buffer (GE Life Sciences; 10× Stock diluted before use). The sensor surfaces were activated for 7 min with a mixture of NHS (0.05 M) and EDC (0.2 M). The anti-Fab or anti-Fc antibodies were injected over all 4 flow cells at a concentration of 25 μg/ml in 10 mM sodium acetate, pH 4.5, for 7 min. Ethanolamine (1 M, pH 8.5) was injected for 7 min to block any remaining activated groups. An average of 12,000 response units (RU) of capture antibody was immobilized on each flow cell.
Off-rate and kinetic binding experiments were performed at 25° C. using 1×HBS-EP+ buffer. Test and control antibodies were injected over the anti-Fab or anti-Fc surface at concentrations of 5-10 μg/mL for 12 seconds at a flow rate of 10 μL/min on flow cells 2, 3 and 4, followed by a buffer wash for 30 seconds at the same flow rate. […]
The data was fit with the Biacore T200 Evaluation software, using a 1-1 Langmuir binding model. KD (affinity, nM) was determined as a ratio of the kinetic rate constants calculated from the fits of the association and dissociation phases.

Molecule	ka	kd
B7	1.02e+06 M⁻¹ s⁻¹	0.000318 s⁻¹
